Laboratory results as given in paper PMC7102599 (Cell, 2020).
“And” between values parts separate entries of the source, which are not always exact repeats. Identical values can stand only once.

Target: human angiotensin-converting enzyme 2 ectodomain (ACE2, residues 1-614) (human, UniProt Q9BYF1 18-614)
Test: BLI

human angiotensin-converting enzyme 2 ectodomain (ACE2, residues 1-614), sequence (Q9BYF1 18-614): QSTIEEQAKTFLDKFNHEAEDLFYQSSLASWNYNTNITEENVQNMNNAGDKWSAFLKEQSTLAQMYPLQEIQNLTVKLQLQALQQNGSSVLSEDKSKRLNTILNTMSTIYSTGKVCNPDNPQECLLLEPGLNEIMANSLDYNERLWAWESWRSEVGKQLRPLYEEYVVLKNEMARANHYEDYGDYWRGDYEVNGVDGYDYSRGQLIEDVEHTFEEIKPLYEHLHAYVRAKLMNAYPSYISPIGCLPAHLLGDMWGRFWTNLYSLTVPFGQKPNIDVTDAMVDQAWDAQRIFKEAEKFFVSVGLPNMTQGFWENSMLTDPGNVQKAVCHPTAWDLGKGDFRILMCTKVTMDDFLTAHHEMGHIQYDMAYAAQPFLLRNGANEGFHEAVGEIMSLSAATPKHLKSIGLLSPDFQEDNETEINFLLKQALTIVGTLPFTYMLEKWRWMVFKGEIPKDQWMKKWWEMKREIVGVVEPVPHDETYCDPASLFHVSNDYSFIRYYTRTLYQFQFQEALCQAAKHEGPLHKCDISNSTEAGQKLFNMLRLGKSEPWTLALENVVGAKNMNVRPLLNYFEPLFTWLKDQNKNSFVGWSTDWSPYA

B1: SARS-CoV S domain B (S^B), residues 306-575 (domain or fragment)
chain: not shown
  Kd: 5 ± 0.1 nM
  koff: 0.00087 s⁻¹ and 0.00071 s⁻¹
  kon: 170000 M⁻¹ s⁻¹
